Experiment: soluble on expression in E. coli; label from the status in PepcDB or PDB records

Sequence | soluble on expression in E. coli
MGSDKIHHHHHHMSELNAQQVVDYLQHHPDFLIQHPELLAQLELQQQAQGATSLVHIQQRQLREHNTLLKNQIASMNKYAAQNEQVYRLFSLCHQQLCSNNDFDALASNLQDIICSNPDISDCRLVKYDTKYAQLVEHRLSNSGHYLGRINQQERDLLFSDTAQSTAIYLIGDINKPIAILAFASNNANHFEPAQDTLFVLDFVVALQSRLLELA | not soluble
MIKLGWASFSNTEFAQDIFIKFANQFYKQDDAGTILFELKKTLGVNQLDEIEKNKKVIIVNQFQNSLGKFLLFNKENTKRINSLANEHISSFLKKIFRLSGFKDMLIDVQHHKKLQKCLLREIHLLVCLINSNQFSDELMQIIEWYQYLKKHSSKLFVITASSDKKPVIEPTINEYKAIFGEYLSSFHLDLKNNQSNDLFQKLLDQIKIKATSKTSLR | soluble
MGSDKIHHHHHHMHFYTARQPILNRRQRVVAYELLFRDSYKNCFPVDVPDKVATAKLLVNSFLSMDIEDMTDGKPALINFPTSLLKEHLVHILPYKNLVIEVLETVEPNDDNFAILKQLFDSGYHLALDDFIYSPAWDRFLPLFKLIKIDIVATPLDTIAHILPKLKQKKTRLLAEKVETQADFLHAKALGFDYFQGYFFYKPEIVKGNEVELSQPFLMSIYTEVMKPSFSYRKLEAYFTQDMDLSYKLLRFVNSSYFSHVKDIISLKQAMIFLGENQLRKFVCLIVMAQLNPDKPQILIQNTMLRARLCEVIAKVMKLNKLADAAFLTGLFSTLDAILDKPMEKVLHSLPLAPEINNALLHQQGELAECLALAIAYMQGNWEFVSEFVSRNHINAGELTRRCNQVYLWLSEYQRSSSSKA | not soluble
MYRNFFSLSELPFSISPDPKYLFMSERHREALTHLTYGLGEVGGFALLTGEVGTGKTTISRCLMEQLPQNTQAAFILNPTLSCQELLATLCDQLKIRYRKTGASLKTLTDKISEKLLKNHENDINTLLIIDEAQHLQPEVLEQLRLLTNLETNTKKLLQVILIGQPELQQLLQRRDLRQL | not soluble
MKDYIRSVLDVVAESPFVPLETHARKGVLAVEKLSEAMEAYCTGNQALLDERTEEIDVLEHEADKIKQKIRASIPSSVRLPVNKKDLLSFLKQQDSIADFAQASAYWMTLRPCKDLPDEIKEGFLELMATSLKTARMYDRLVGELYKLLATSFSKEEIKETLQLVPEVEKLEHDVDVLETALLKKIFEHESAIGGAGVCHLMGLVERIGGIADKSASAADRLRSMILRRLEHHHHHH | soluble
RGIAVYVEHHNGNIHPVTYELIGKAREMASKIKQPVYCVFVGKDIKDKCSNLISYGVDEVFVYDEDEFKDFRIEPYSKAIENFIDKIKPTIVLVGGTTLGRSLAPRLAARFRTGLTADCTILDIQSNTDLDQIRPAFGGNIMAHINTPNNRPQFATVRYKIFSAPEKIENTTGKITLCKVEKKELKSKIKVLS | not soluble
MGSDKIHHHHHHMSLKEEQVSIKQDPEQEERQHDQFNDVQIKQESQDHDGVDSQYTNGTQNDDSERFEAAESDVKVEPGLGMGITSSQSEKGQVLPDQPEIKFIRRQINGYVGFANLPKQWHRRSIKNGFSFNLLCVGPDGIGKTTLMKTLFNNDDIEANLVKDYEEELANDQEEEEGQGEGHENQSQEQRHKVKIKSYESVIEENGVKLNLNVIDTEGFGDFLNNDQKSWDPIIKEIDSRFDQYLDAENKINRHSINDKRIHACLYFIEPTGHYLKPLDLKFMQSVYEKCNLIPVIAKSDILTDEEILSFKKTIMNQLIQSNIELFKPPIYSNDDAENSHLSERLFSSLPYAVIGSNDIVENYSGNQVRGRSYPWGVIEVDNDNHSDFNLLKNLLIKQFMEELKERTSKILYENYRSSKLAKLGIKQDNSVFKEFDPISKQLEEKTLHEAKLAKLEIEMKTVFQQKVSEKEKKLQKSETELFARHKEMKEKLTKQLKALEDKKKQLELSINSASPNVNHSPVPTKKKGFLR | not soluble
MQNNSYGYAVSVRVGGKEHRHWERYDIDSDFLIPADSFDFVIGRLGPEAAIPDLSGESCEVVIDGQIVMTGIIGSQRHGKSKGSRELSLSGRDLAGFLVDCSAPQLNVKGMTVLDAAKKLAAPWPQIKAVVLKAENNPALGKIDIEPGETVWQALTHIANSVGLHPWLEPDGTLVVGGADYSSPPVATLCWSRTDSRCNIERMDIEWDTDNRFSEVTFLAQSHGRSGDSAKHDLKWVYKDPTMTLHRPKTVVVSDADNLAALQKQAKKQLADWRLEGFTLTITVGGHKTRDGVLWQPGLRVHVIDDEHGIDAVFFLMGRRFMLSRMDGTQTELRLKEDGIWTPDAYPK | not soluble
MGKEYHVAVVGATGAVGTRMIELLAETSLPIASVRLLASKRSAGQEIQFKGQPLIVEELVPESFEGIDLALFSAGGSISEKFAPEAVKRGAVVVDNTSHFRMAKDVPLVVPEVNPEALKNHQGIIANPNCSTIQMMVALEPIRQAFGLERIIVSTYQAVSGAGIRAINELKEQAEDFLEGKPVSEWSAEILPAGSDEKHYPIAFNALPQIDVFSEAGYTYEEWKMMNETKKIMGDNKLKVVATCVRIPVISGHSESVYIEVKQADASVSAIQELMAQAPGVILQDEPSEQLYPQALNSVNQKETFVGRIRQDVDVKNGFHLWIVSDNLLKGAAWNSVQIAETLHEMNLLRVPEND | not soluble
MGSDKIHHHHHHMSVTSTTSQNSLFDVIVIGSGIGGLVTATQLAAKGAKVLVLESYIIPGGSAGYFERQGYRFDVGASMIFGLGNRGTTNLLTRALQAVNSSVEAIADPVQIHYHLPSNLNLKVDRVYDKFLQNLAAYFPHETKGIRRFYDECWQVFKCLNRMDLLSLEEPRYLLRTFLQHPLACLGLLKYLPQNVGDIARRYIRDPELLKFIDIECYCWSVVPAAMTPMINAGMVFSDRHYGGVNYPKGGVGQIAQKLAEGLEKVGGEIRYQAKVAKIITEKYRAVGVQLTNGEIYRSKRIVSNATRWDTFEKLLPVDKMPSNEKDWQHSYKKSPSFLSLHMGVKESVLPQGTECHHIILEDWQNMTQAEGTLFVSIPTLLDPELAPEGCHIIHAFTPHWINDWQGFSVSDYEAKKEETAWRIIDRLEKIFPGLDAGLDYLEVGTPRTHRRFLGREDGTYGPIPRRKLRGLLSMPFNRTAIKGLYCVGDSTFPGQGLNAVAFSGFACAHRIAVDLGL | not soluble
MAHHHHHHMKDEQISCYYLTEKGKNKCFKNIKLITFDLDHTIWNIDALLNYADNECYKYMEQNYKRLYDYLSKEYALSMTNLVKELLERNIDMNKDGVQILTRIRTDALKYLAKQTNYDEIKFASEIQKLWKEKKKDVHLFISPGTLEYLRELKNRGYILGAITNGDSDVNEIKFLNEIFSFVVRSMDYNFAKPNVEIFNIAENLLKEKNINFHVDEWLHVGDDVYTDIMGAKNKNINCAWITMFREGREISHKEWYSYLKLKYEQNDNKQTLSQYDPYADGLFAKFRKKDVVLPFDYIDIEIRHCRDLDSILA | not soluble
MKDILIIAGPTAVGKTDISIKIAQKMNGEIISADSMQIYKYMDIGSAKVTKEEMKGIKHHLIDVVDPSEEFSVASFKKMAQNAIDDITSRKKYPIIVGGTGLYINSLICNYDFTGAYKDEAYRESLQAIAKDKGKEYLHEKLKNIDIDSYKKLYPNDLKRVIRALEVYKITGKTISELNSNVDLYDIPYNIHYFILNMDRQKLYERINLRVDIMLRNGLVDEVIKLRDMGYNSNMQSMKGIGYKEILSYLEGCITLEEAVELIKKGSRHYAKRQLTWFRKDERAVWINKDIYKNDDDIVFKILSSIEEILEHHHHHH | not soluble
MAKQELSAREAVTEAKCYLNNAKEILREKGAKTEGYYRDSKYVKMAGDTAYSGVLFVLDHYFGEKAKGRKDVDWYRINLSKEDRKMLDSFTAVYEQLHL | not soluble
MGHHHHHHSHMAIVEHLYQQGMLSVAEELCQESTLNVDLDFKQPFLELNRILEALHEQDLGPALEWAVSHRQRLLELNSSLEFKLHRLHFIRLLAGGPAKQLEALSYARHFQPFARLHQREIQVMMGSLVYLRLGLEKSPYCHLLDSSHWAEICETFTRDACSLLGLSVESPLSVSFASGCVALPVLMNIKAVIEQRQCTGVWNHKDELPIEIELGMKCWYHSVFACPILRQQTSDSNPPIKLICGHVISRDALNKLINGGKLKCPYCPMEQNPADGKRIIF | not soluble
MGSDKIHHHHHHMKKLLRNLFGSGREEEKRSASDAMSGREQIVTNSEKSNLSTDPDHVNRQADTLKFDAIRAMNMGELVFATEALRKAMELRPEFETRYYLTEALLRRHLTEEALAQMNLLLEEVPMHTATLLNRAKLRLEQNDPSRALEDCGTGIESTSELEEQALFLYYGASAMKDMKNLKDALCLLKQAIEKNDAFIPARLLRARILIDLERYEEATQDLDWVAASDPEEEQVPMLRARLFMLEGKQQNAIQAYEELLSLDPFNEEGHCGIATLMIKEGRSAEAETFLREAIEEMPVQRNLILMLVEILENKGQTQEAAEWRAKLPEAEVESEAVNFNDLYKGNLY | not soluble
MAHHHHHHMFSLSDTQLGISPMRQFSPSLFRQNKVAEKYRATQGTGIGPQYHQLSDGRLVRPGTSHTKLLPMLEPGETVDWEKLPSYYHWYPKEELHDYIENTTWREIKGRPTGEPLEKRLRKAITGGTFEKDEAPAPDLMPWNSATIPITKFPHERNDEEIIVVDPKTGRIIGMERETYERWKRMMEERRAGLPESDPVEYDQERYVTNKDGVVFDLSKMKYRPIFEGRWNPRRQQSTGRTNPIMT | soluble
MTSFTIPGLSDKKASDVADLLQKQLSTYNDLHLTLKHVHWNVVGPNFIGVHEMIDPQVELVRGYADEVAERIATLGKSPKGTPGAIIKDRTWDDYSVERDTVQAHLAALDLVYNGVIEDTRKSIEKLEDLDLVSQDLLIAHAGELEKFQWFVRAHLESAGGQLTHEGQSTEKGAADKARRKSA | soluble
MDNDRDTVEFWSSLFQSFADSEPKDNPYPVVRSPIMTMSTPMAIDEPVEPWKVLEYGGKEVRPMAIDEPAEPWKALEYGGKDVRPMAIDVPAEPWKVGGKEAQPANAAAEAGYKNVNTDQEKSTQKATEKVIM | soluble
VQFQEYVFLQFLGLDKAPSPQKFQPVPYILKKIFQDREAAATTGVSRDLCYVKELGVRGNVLRFLPDQGFFLYPKKISQASSCLQKLLYFNLSAIKEREQLTLAQLGLDLGPNSYYNLGPELELALFLVQEPHVWGQTTPKPGKMFVLRSVPWPQGAVHFNLLDVAKDWNDNPRKNFGLFLEILVKEDRDSGVNFQPEDTCARLRCSLHASLLVVTLNPDQCHPSRKRRAAIPVPKLSCKNLCHRHQLFINFRDLGWHKWIIAPKGFMANYCHGECPFSLTISLNSSNYAFMQALMHAVDPEIPQAVCIPTKLSPISMLYQDNNDNVILRHYEDMVVDECGCG | soluble
MGSDKIHHHHHHKESGSLLNLLTDAEIERTEKIVISGNGLEEKDFAVLKAMLIRHALREVDIENTSTRAITERAFEGCSNLSAIKLPKYLVNTGWYAFEDCSGLMDIELPVSVETIANSFRGCSSLTSITLGRRVKSLDSQSFYLCSNLREVHCKGSIPPSCKQDSFKGLYETCTLYVPEGCKRDYTFADGWLNFGNIREEYVEPALSLRVNLEGGTFAWQLYPLYDGNGGIIVNHFYPGQDYLIDVEKGETIVFHIAEENTYFSNWKIDTILLNGEDITSQVTENDLLYLNIDRDSKLEIVMKDLSVTSNDVIENPQDIKISTLDNKVLIQNITTGERVNVYNVLGVLVHSVVVEAMDYEVQLPKGEIYLIQIGKKTVKLKL | not soluble
MGSDKIHHHHHHMILPDRKQILDRELIRRIADTTISGSGHSDGLSEYASIRKAAFAFVESAVLGDQAYSPIENAELAFIVWILAALDENIITARTIIKARDTVYYYLRLVEHYEDLEEFGSRLGIEISVFGEQIGKDHLYRIGVADFATYASRVTGSKYRLSNQIVREGYVYVDEDVMAKVLREAFVSFMFDTLDQIRYYDAIETIKSVLDDLEKIRESYRKAHNVRMIAGKGDASMFPPCMKEIIKNLESGVNVSHMGRLALASFLHKAGYSEDEIVPYFRNAPDFDENITRYQIKHISGEISGTEYTPPKCETMRSNHLCYMDDDPLCHREWMKHPLTYYEVKRRNRKIR | not soluble
